B1: Compound No. 72 (peptide)
peptide: AFXGDVFYGWYLCG
HELM: PEPTIDE1{[O=C(C[*:3])[*:2]].A.[meF].[CCCC[C@@H](C(=O)[*:2])N(C)[*:1]].[Sar].D.V.[meF].Y.[Sar].W.Y.L.C.G.[am]}$PEPTIDE1,PEPTIDE1,1:R3-14:R3$$$V2.0
SMILES: CCCC[C@H]1C(=O)N(C)CC(=O)N[C@@H](CC(=O)O)C(=O)N[C@@H](C(C)C)C(=O)N(C)[C@@H](Cc2ccccc2)C(=O)N[C@@H](Cc2ccc(O)cc2)C(=O)N(C)CC(=O)N[C@@H](Cc2c[nH]c3ccccc23)C(=O)N[C@@H](Cc2ccc(O)cc2)C(=O)N[C@@H](CC(C)C)C(=O)N[C@H](C(=O)NCC(N)=O)CSCC(=O)N[C@@H](C)C(=O)N(C)[C@@H](Cc2ccccc2)C(=O)N1C
notes: macrocyclic peptide cyclized via the ClAc moiety with the downstream cysteine; variant of Compound No. 71 (Ala at 1)
B2: Compound No. 84 (peptide)
peptide: FFXGDVFYAWYLCG
HELM: PEPTIDE1{[O=C(C[*:3])[*:2]].F.[meF].[CCCC[C@@H](C(=O)[*:2])N(C)[*:1]].[Sar].D.V.[meF].Y.[meA].W.Y.L.C.G.[am]}$PEPTIDE1,PEPTIDE1,1:R3-14:R3$$$V2.0
SMILES: CCCC[C@H]1C(=O)N(C)CC(=O)N[C@@H](CC(=O)O)C(=O)N[C@@H](C(C)C)C(=O)N(C)[C@@H](Cc2ccccc2)C(=O)N[C@@H](Cc2ccc(O)cc2)C(=O)N(C)[C@@H](C)C(=O)N[C@@H](Cc2c[nH]c3ccccc23)C(=O)N[C@@H](Cc2ccc(O)cc2)C(=O)N[C@@H](CC(C)C)C(=O)N[C@H](C(=O)NCC(N)=O)CSCC(=O)N[C@@H](Cc2ccccc2)C(=O)N(C)[C@@H](Cc2ccccc2)C(=O)N1C
notes: macrocyclic peptide cyclized via the ClAc moiety with the downstream cysteine; variant of Compound No. 71 (mAla at 9)
B3: Compound No. 87 (peptide)
peptide: FFXGDVFYGWYACG
HELM: PEPTIDE1{[O=C(C[*:3])[*:2]].F.[meF].[CCCC[C@@H](C(=O)[*:2])N(C)[*:1]].[Sar].D.V.[meF].Y.[Sar].W.Y.A.C.G.[am]}$PEPTIDE1,PEPTIDE1,1:R3-14:R3$$$V2.0
SMILES: CCCC[C@H]1C(=O)N(C)CC(=O)N[C@@H](CC(=O)O)C(=O)N[C@@H](C(C)C)C(=O)N(C)[C@@H](Cc2ccccc2)C(=O)N[C@@H](Cc2ccc(O)cc2)C(=O)N(C)CC(=O)N[C@@H](Cc2c[nH]c3ccccc23)C(=O)N[C@@H](Cc2ccc(O)cc2)C(=O)N[C@@H](C)C(=O)N[C@H](C(=O)NCC(N)=O)CSCC(=O)N[C@@H](Cc2ccccc2)C(=O)N(C)[C@@H](Cc2ccccc2)C(=O)N1C
notes: macrocyclic peptide cyclized via the ClAc moiety with the downstream cysteine; variant of Compound No. 71 (Ala at 12)
B4: Compound No. 86 (peptide)
peptide: FFXGDVFYGWALCG
HELM: PEPTIDE1{[O=C(C[*:3])[*:2]].F.[meF].[CCCC[C@@H](C(=O)[*:2])N(C)[*:1]].[Sar].D.V.[meF].Y.[Sar].W.A.L.C.G.[am]}$PEPTIDE1,PEPTIDE1,1:R3-14:R3$$$V2.0
SMILES: CCCC[C@H]1C(=O)N(C)CC(=O)N[C@@H](CC(=O)O)C(=O)N[C@@H](C(C)C)C(=O)N(C)[C@@H](Cc2ccccc2)C(=O)N[C@@H](Cc2ccc(O)cc2)C(=O)N(C)CC(=O)N[C@@H](Cc2c[nH]c3ccccc23)C(=O)N[C@@H](C)C(=O)N[C@@H](CC(C)C)C(=O)N[C@H](C(=O)NCC(N)=O)CSCC(=O)N[C@@H](Cc2ccccc2)C(=O)N(C)[C@@H](Cc2ccccc2)C(=O)N1C
notes: macrocyclic peptide cyclized via the ClAc moiety with the downstream cysteine; variant of Compound No. 71 (Ala at 11)
B5: Compound No. 80 (peptide)
peptide: FFXGDAFYGWYLCG
HELM: PEPTIDE1{[O=C(C[*:3])[*:2]].F.[meF].[CCCC[C@@H](C(=O)[*:2])N(C)[*:1]].[Sar].D.A.[meF].Y.[Sar].W.Y.L.C.G.[am]}$PEPTIDE1,PEPTIDE1,1:R3-14:R3$$$V2.0
SMILES: CCCC[C@H]1C(=O)N(C)CC(=O)N[C@@H](CC(=O)O)C(=O)N[C@@H](C)C(=O)N(C)[C@@H](Cc2ccccc2)C(=O)N[C@@H](Cc2ccc(O)cc2)C(=O)N(C)CC(=O)N[C@@H](Cc2c[nH]c3ccccc23)C(=O)N[C@@H](Cc2ccc(O)cc2)C(=O)N[C@@H](CC(C)C)C(=O)N[C@H](C(=O)NCC(N)=O)CSCC(=O)N[C@@H](Cc2ccccc2)C(=O)N(C)[C@@H](Cc2ccccc2)C(=O)N1C
notes: macrocyclic peptide cyclized via the ClAc moiety with the downstream cysteine; variant of Compound No. 71 (Ala at 6)
B6: Compound No. 83 (peptide)
peptide: FFXGDVFAGWYLCG
HELM: PEPTIDE1{[O=C(C[*:3])[*:2]].F.[meF].[CCCC[C@@H](C(=O)[*:2])N(C)[*:1]].[Sar].D.V.[meF].A.[Sar].W.Y.L.C.G.[am]}$PEPTIDE1,PEPTIDE1,1:R3-14:R3$$$V2.0
SMILES: CCCC[C@H]1C(=O)N(C)CC(=O)N[C@@H](CC(=O)O)C(=O)N[C@@H](C(C)C)C(=O)N(C)[C@@H](Cc2ccccc2)C(=O)N[C@@H](C)C(=O)N(C)CC(=O)N[C@@H](Cc2c[nH]c3ccccc23)C(=O)N[C@@H](Cc2ccc(O)cc2)C(=O)N[C@@H](CC(C)C)C(=O)N[C@H](C(=O)NCC(N)=O)CSCC(=O)N[C@@H](Cc2ccccc2)C(=O)N(C)[C@@H](Cc2ccccc2)C(=O)N1C
notes: macrocyclic peptide cyclized via the ClAc moiety with the downstream cysteine; variant of Compound No. 71 (Ala at 8)
B7: Compound No. 77 (peptide)
peptide: FFXADVFYGWYLCG
HELM: PEPTIDE1{[O=C(C[*:3])[*:2]].F.[meF].[CCCC[C@@H](C(=O)[*:2])N(C)[*:1]].[meA].D.V.[meF].Y.[Sar].W.Y.L.C.G.[am]}$PEPTIDE1,PEPTIDE1,1:R3-14:R3$$$V2.0
SMILES: CCCC[C@H]1C(=O)N(C)[C@@H](C)C(=O)N[C@@H](CC(=O)O)C(=O)N[C@@H](C(C)C)C(=O)N(C)[C@@H](Cc2ccccc2)C(=O)N[C@@H](Cc2ccc(O)cc2)C(=O)N(C)CC(=O)N[C@@H](Cc2c[nH]c3ccccc23)C(=O)N[C@@H](Cc2ccc(O)cc2)C(=O)N[C@@H](CC(C)C)C(=O)N[C@H](C(=O)NCC(N)=O)CSCC(=O)N[C@@H](Cc2ccccc2)C(=O)N(C)[C@@H](Cc2ccccc2)C(=O)N1C
notes: macrocyclic peptide cyclized via the ClAc moiety with the downstream cysteine; variant of Compound No. 71 (mAla at 4)
B8: Compound No. 85 (peptide)
peptide: FFXGDVFYGWYLCG
HELM: PEPTIDE1{[O=C(C[*:3])[*:2]].F.[meF].[CCCC[C@@H](C(=O)[*:2])N(C)[*:1]].[Sar].D.V.[meF].Y.G.W.Y.L.C.G.[am]}$PEPTIDE1,PEPTIDE1,1:R3-14:R3$$$V2.0
SMILES: CCCC[C@H]1C(=O)N(C)CC(=O)N[C@@H](CC(=O)O)C(=O)N[C@@H](C(C)C)C(=O)N(C)[C@@H](Cc2ccccc2)C(=O)N[C@@H](Cc2ccc(O)cc2)C(=O)NCC(=O)N[C@@H](Cc2c[nH]c3ccccc23)C(=O)N[C@@H](Cc2ccc(O)cc2)C(=O)N[C@@H](CC(C)C)C(=O)N[C@H](C(=O)NCC(N)=O)CSCC(=O)N[C@@H](Cc2ccccc2)C(=O)N(C)[C@@H](Cc2ccccc2)C(=O)N1C
notes: macrocyclic peptide cyclized via the ClAc moiety with the downstream cysteine; variant of Compound No. 71 (Gly instead of Sar at 9)
B9: Compound No. 71 (peptide)
peptide: FFXGDVFYGWYLCG
HELM: PEPTIDE1{[O=C(C[*:3])[*:2]].F.[meF].[CCCC[C@@H](C(=O)[*:2])N(C)[*:1]].[Sar].D.V.[meF].Y.[Sar].W.Y.L.C.G.[am]}$PEPTIDE1,PEPTIDE1,1:R3-14:R3$$$V2.0
SMILES: CCCC[C@H]1C(=O)N(C)CC(=O)N[C@@H](CC(=O)O)C(=O)N[C@@H](C(C)C)C(=O)N(C)[C@@H](Cc2ccccc2)C(=O)N[C@@H](Cc2ccc(O)cc2)C(=O)N(C)CC(=O)N[C@@H](Cc2c[nH]c3ccccc23)C(=O)N[C@@H](Cc2ccc(O)cc2)C(=O)N[C@@H](CC(C)C)C(=O)N[C@H](C(=O)NCC(N)=O)CSCC(=O)N[C@@H](Cc2ccccc2)C(=O)N(C)[C@@H](Cc2ccccc2)C(=O)N1C
notes: Macrocyclic peptide of the Formula II series; X = norleucine backbone (N-methylated)

Biological target: T1, hPDL1(19-239)-TVMV-His (human, UniProt Q9NZQ7 19-239)
T1 construct: The construct name says 19-239, the running text says amino acids 18-239; Expressed in HEK293T cells; also called PD-L1-His; PD-L1-TVMV-His
T1 sequence (Q9NZQ7 other isoform, or with tags, fused parts or gaps limits assumed): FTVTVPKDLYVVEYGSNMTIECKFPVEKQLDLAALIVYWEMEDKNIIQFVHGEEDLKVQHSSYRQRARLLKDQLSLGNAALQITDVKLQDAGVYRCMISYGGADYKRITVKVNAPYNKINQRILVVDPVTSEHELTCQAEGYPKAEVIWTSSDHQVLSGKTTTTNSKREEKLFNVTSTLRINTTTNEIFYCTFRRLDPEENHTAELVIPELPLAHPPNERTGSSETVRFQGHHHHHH
Assay: HTRF competition, PD-1-Ig (20 nM) binding to human PD-L1-His (10 nM)
Procedure: All binding studies were performed in an HTRF assay buffer consisting of dPBS supplemented with 0.1% (w/v) bovine serum albumin and 0.05% (v/v) Tween-20. […] PD-L1 fusion proteins from either human, cynomologous macaques, or mouse were used. HTRF detection was achieved using europium crypate-labeled anti-Ig monoclonal antibody (1 nM final) and allophycocyanin (APC) labeled anti-His monoclonal antibody (20 nM final). Antibodies were diluted in HTRF detection buffer and 5 μl was dispensed on top of binding reaction. The reaction was allowed to equilibrate for 30 minutes and signal (665 nm/620 nm ratio) was obtained using an EnVision fluorometer. […]
HTRF experiments were performed essentially as outlined supra. Variant macrocyclic peptides were created as outlined herein.

IC50 [nM]	Binder
4230	B1
42	B2
25	B3
820	B4
264	B5
35	B6
24	B7
191	B8

Biological target: T2, human PD-L1 (human, UniProt Q9NZQ7 19-239, limits assumed)
T2 construct: also called Hu PD-L1; hPD-L1
T2 sequence (Q9NZQ7 19-239 limits assumed): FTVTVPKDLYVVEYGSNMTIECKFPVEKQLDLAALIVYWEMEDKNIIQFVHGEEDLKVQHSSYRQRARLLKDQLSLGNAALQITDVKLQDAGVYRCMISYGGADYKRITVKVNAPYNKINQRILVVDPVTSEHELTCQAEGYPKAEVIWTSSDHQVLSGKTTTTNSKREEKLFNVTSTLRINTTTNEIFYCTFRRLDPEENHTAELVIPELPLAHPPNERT
Assay: cell binding assay, inhibition of human PD-L1/PD-1 binding (cell format not given)

IC50 [nM]	Binder
10	B9
